Positions count from the first letter of the chain named.
T1: ARHGAP21, Q5T5U3
T1 sequence (Q5T5U3 45-169, limits assumed, looked up): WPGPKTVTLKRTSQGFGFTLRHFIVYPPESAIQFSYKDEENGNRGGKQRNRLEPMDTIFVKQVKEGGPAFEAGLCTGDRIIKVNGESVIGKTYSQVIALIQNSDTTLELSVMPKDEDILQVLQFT

T2: LIN7C, Q9NUP9
T2 sequence (Q9NUP9 88-185, limits assumed, looked up): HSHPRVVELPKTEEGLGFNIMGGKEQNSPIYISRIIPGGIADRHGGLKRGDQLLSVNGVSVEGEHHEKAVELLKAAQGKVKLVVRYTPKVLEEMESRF

T3: NHERF3_4, Q5T2W1
T3 sequence (Q5T2W1 373-468, limits assumed, looked up): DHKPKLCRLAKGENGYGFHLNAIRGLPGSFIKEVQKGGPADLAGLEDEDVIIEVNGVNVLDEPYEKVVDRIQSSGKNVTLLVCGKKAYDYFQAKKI

T4: PDZRN3_1, Q9UPQ7
T4 sequence (Q9UPQ7 244-349, limits assumed, looked up): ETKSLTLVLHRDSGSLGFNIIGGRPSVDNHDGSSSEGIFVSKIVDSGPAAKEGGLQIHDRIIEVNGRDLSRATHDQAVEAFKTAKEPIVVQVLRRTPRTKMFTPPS

T5: PDZD2_2, O15018
T5 sequence (O15018 329-429, limits assumed, looked up): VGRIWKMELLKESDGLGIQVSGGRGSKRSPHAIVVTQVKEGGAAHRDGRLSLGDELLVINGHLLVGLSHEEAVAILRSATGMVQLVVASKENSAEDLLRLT

T6: LIN7B, Q9HAP6
T6 sequence (Q9HAP6 88-185, limits assumed, looked up): T2 sequence (Q9NUP9 88-185, limits assumed, looked up) with S2A, E13D, I35V, I40V, H65Q, K79S, K89R, S96A

T7: LNX2_3, Q8N448
T7 sequence (Q8N448 463-564, limits assumed, looked up): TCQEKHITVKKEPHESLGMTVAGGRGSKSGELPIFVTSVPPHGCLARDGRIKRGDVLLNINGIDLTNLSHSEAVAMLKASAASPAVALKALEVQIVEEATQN

T8: HTRA4, P83105
T8 sequence (P83105 378-476, limits assumed, looked up): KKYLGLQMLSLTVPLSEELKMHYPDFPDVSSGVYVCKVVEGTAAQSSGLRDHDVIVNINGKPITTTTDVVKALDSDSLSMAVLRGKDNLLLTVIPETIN

T9: SNTG2, Q9NY99
T9 sequence (Q9NY99 68-166, limits assumed, looked up): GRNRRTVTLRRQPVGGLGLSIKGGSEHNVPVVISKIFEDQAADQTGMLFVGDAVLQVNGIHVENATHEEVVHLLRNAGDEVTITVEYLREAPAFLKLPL

T10: APBA2_2, Q99767
T10 sequence (Q99767 654-744, limits assumed, looked up): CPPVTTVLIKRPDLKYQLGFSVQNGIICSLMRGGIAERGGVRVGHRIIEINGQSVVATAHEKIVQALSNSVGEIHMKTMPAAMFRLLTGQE

T11: GRIP1_4, Q9Y3R0
T11 sequence (Q9Y3R0 467-571, limits assumed, looked up): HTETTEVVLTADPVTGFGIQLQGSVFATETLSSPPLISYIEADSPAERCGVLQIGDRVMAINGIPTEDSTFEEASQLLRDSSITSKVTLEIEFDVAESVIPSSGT

T12: SNTB1, Q13884
T12 sequence (Q13884 107-205, limits assumed, looked up): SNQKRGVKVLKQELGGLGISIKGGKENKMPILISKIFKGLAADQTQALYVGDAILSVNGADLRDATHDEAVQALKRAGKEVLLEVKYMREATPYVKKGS


Molecular target: DLG4_3, P78352
Sequence (P78352 306-403): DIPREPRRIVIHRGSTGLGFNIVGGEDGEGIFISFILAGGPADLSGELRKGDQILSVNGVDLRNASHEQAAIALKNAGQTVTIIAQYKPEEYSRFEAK
Experiment: holdup assay
Set-up: key: below the threshold = too weak to quantify, mostly under pKd 3.1 to 4
Settings: plain residues with an end cap or a label only (N-terminal biotin on a linker: ado-ado)

Binder	pKd
PEYLGLDVPV [ERBB2, P04626]	below the threshold

Molecular target: T1, ARHGAP21, Q5T5U3
Experiment: holdup assay
Set-up: key: below the threshold = too weak to quantify, mostly under pKd 3.1 to 4
Settings: plain residues with an end cap or a label only (N-terminal biotin on a linker: ado-ado)

Binder	pKd
PEYLGLDVPV [ERBB2, P04626]	4.12

Molecular target: Inadl_3, Q8NI35
Sequence (Q8NI35 359-469): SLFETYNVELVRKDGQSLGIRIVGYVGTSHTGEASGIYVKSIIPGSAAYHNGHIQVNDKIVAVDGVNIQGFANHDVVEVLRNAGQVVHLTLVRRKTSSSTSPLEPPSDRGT
Experiment: holdup assay
Set-up: key: below the threshold = too weak to quantify, mostly under pKd 3.1 to 4
Settings: plain residues with an end cap or a label only (N-terminal biotin on a linker: ado-ado)

Binder	pKd
PEYLGLDVPV [ERBB2, P04626]	3.48

Molecular target: LNX1_2, Q8TBB1
Sequence (Q8TBB1 371-470): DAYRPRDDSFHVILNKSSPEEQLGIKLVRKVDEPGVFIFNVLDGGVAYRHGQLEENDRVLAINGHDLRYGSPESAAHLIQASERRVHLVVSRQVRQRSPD
Experiment: holdup assay
Set-up: key: below the threshold = too weak to quantify, mostly under pKd 3.1 to 4
Settings: plain residues with an end cap or a label only (N-terminal biotin on a linker: ado-ado)

Binder	pKd
PEYLGLDVPV [ERBB2, P04626]	below the threshold

Molecular target: Inadl_6, Q8NI35
Sequence (Q8NI35 1058-1167): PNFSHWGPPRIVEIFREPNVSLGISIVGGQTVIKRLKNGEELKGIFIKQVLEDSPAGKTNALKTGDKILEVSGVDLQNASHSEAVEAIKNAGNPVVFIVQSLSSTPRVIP
Experiment: holdup assay
Set-up: key: below the threshold = too weak to quantify, mostly under pKd 3.1 to 4
Settings: plain residues with an end cap or a label only (N-terminal biotin on a linker: ado-ado)

Binder	pKd
PEYLGLDVPV [ERBB2, P04626]	below the threshold

Molecular target: T2, LIN7C, Q9NUP9
Experiment: holdup assay
Set-up: key: below the threshold = too weak to quantify, mostly under pKd 3.1 to 4
Settings: plain residues with an end cap or a label only (N-terminal biotin on a linker: ado-ado)

Binder	pKd
PEYLGLDVPV [ERBB2, P04626]	below the threshold

Molecular target: T3, NHERF3_4, Q5T2W1
Experiment: holdup assay
Set-up: key: below the threshold = too weak to quantify, mostly under pKd 3.1 to 4
Settings: plain residues with an end cap or a label only (N-terminal biotin on a linker: ado-ado)

Binder	pKd
PEYLGLDVPV [ERBB2, P04626]	3.59

Molecular target: T4, PDZRN3_1, Q9UPQ7
Experiment: holdup assay
Set-up: key: below the threshold = too weak to quantify, mostly under pKd 3.1 to 4
Settings: plain residues with an end cap or a label only (N-terminal biotin on a linker: ado-ado)

Binder	pKd
PEYLGLDVPV [ERBB2, P04626]	3.48

Molecular target: T5, PDZD2_2, O15018
Experiment: holdup assay
Set-up: key: below the threshold = too weak to quantify, mostly under pKd 3.1 to 4
Settings: plain residues with an end cap or a label only (N-terminal biotin on a linker: ado-ado)

Binder	pKd
PEYLGLDVPV [ERBB2, P04626]	below the threshold

Molecular target: T6, LIN7B, Q9HAP6
Experiment: holdup assay
Set-up: key: below the threshold = too weak to quantify, mostly under pKd 3.1 to 4
Settings: plain residues with an end cap or a label only (N-terminal biotin on a linker: ado-ado)

Binder	pKd
PEYLGLDVPV [ERBB2, P04626]	below the threshold

Molecular target: T7, LNX2_3, Q8N448
Experiment: holdup assay
Set-up: key: below the threshold = too weak to quantify, mostly under pKd 3.1 to 4
Settings: plain residues with an end cap or a label only (N-terminal biotin on a linker: ado-ado)

Binder	pKd
PEYLGLDVPV [ERBB2, P04626]	below the threshold

Molecular target: T8, HTRA4, P83105
Experiment: holdup assay
Set-up: key: below the threshold = too weak to quantify, mostly under pKd 3.1 to 4
Settings: plain residues with an end cap or a label only (N-terminal biotin on a linker: ado-ado)

Binder	pKd
PEYLGLDVPV [ERBB2, P04626]	3.98

Molecular target: T9, SNTG2, Q9NY99
Experiment: holdup assay
Set-up: key: below the threshold = too weak to quantify, mostly under pKd 3.1 to 4
Settings: plain residues with an end cap or a label only (N-terminal biotin on a linker: ado-ado)

Binder	pKd
PEYLGLDVPV [ERBB2, P04626]	below the threshold

Molecular target: SCRIB_2, Q14160
Sequence (Q14160 857-960): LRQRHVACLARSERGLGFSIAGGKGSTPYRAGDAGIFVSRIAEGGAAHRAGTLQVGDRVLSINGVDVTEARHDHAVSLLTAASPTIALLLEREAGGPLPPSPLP
Experiment: holdup assay
Set-up: key: below the threshold = too weak to quantify, mostly under pKd 3.1 to 4
Settings: plain residues with an end cap or a label only (N-terminal biotin on a linker: ado-ado)

Binder	pKd
PEYLGLDVPV [ERBB2, P04626]	below the threshold

Molecular target: DLG1_3, Q12959
Sequence (Q12959 457-571): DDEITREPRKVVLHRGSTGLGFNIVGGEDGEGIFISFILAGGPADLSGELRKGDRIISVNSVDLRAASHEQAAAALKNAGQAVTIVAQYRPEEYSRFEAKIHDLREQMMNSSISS
Experiment: holdup assay
Set-up: key: below the threshold = too weak to quantify, mostly under pKd 3.1 to 4
Settings: plain residues with an end cap or a label only (N-terminal biotin on a linker: ado-ado)

Binder	pKd
PEYLGLDVPV [ERBB2, P04626]	below the threshold

Molecular target: LNX1_3, Q8TBB1
Sequence (Q8TBB1 500-596): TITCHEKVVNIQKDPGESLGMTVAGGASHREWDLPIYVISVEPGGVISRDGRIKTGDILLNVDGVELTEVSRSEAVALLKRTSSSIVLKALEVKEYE
Experiment: holdup assay
Set-up: key: below the threshold = too weak to quantify, mostly under pKd 3.1 to 4
Settings: plain residues with an end cap or a label only (N-terminal biotin on a linker: ado-ado)

Binder	pKd
PEYLGLDVPV [ERBB2, P04626]	below the threshold

Molecular target: MAGI2_4, Q86UL8
Sequence (Q86UL8 772-865): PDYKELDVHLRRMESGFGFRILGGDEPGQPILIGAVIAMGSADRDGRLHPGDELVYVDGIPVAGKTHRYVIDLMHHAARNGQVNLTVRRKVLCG
Experiment: holdup assay
Set-up: key: below the threshold = too weak to quantify, mostly under pKd 3.1 to 4
Settings: plain residues with an end cap or a label only (N-terminal biotin on a linker: ado-ado)

Binder	pKd
PEYLGLDVPV [ERBB2, P04626]	below the threshold

Molecular target: T10, APBA2_2, Q99767
Experiment: holdup assay
Set-up: key: below the threshold = too weak to quantify, mostly under pKd 3.1 to 4
Settings: plain residues with an end cap or a label only (N-terminal biotin on a linker: ado-ado)

Binder	pKd
PEYLGLDVPV [ERBB2, P04626]	below the threshold

Molecular target: T11, GRIP1_4, Q9Y3R0
Experiment: holdup assay
Set-up: key: below the threshold = too weak to quantify, mostly under pKd 3.1 to 4
Settings: plain residues with an end cap or a label only (N-terminal biotin on a linker: ado-ado)

Binder	pKd
PEYLGLDVPV [ERBB2, P04626]	below the threshold

Molecular target: T12, SNTB1, Q13884
Experiment: holdup assay
Set-up: key: below the threshold = too weak to quantify, mostly under pKd 3.1 to 4
Settings: plain residues with an end cap or a label only (N-terminal biotin on a linker: ado-ado)

Binder	pKd
PEYLGLDVPV [ERBB2, P04626]	3.92

Molecular target: TJP1_3, Q07157
Sequence (Q07157 416-512): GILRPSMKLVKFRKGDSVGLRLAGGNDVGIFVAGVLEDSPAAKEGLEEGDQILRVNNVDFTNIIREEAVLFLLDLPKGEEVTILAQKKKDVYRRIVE
Experiment: holdup assay
Set-up: key: below the threshold = too weak to quantify, mostly under pKd 3.1 to 4
Settings: plain residues with an end cap or a label only (N-terminal biotin on a linker: ado-ado)

Binder	pKd
PEYLGLDVPV [ERBB2, P04626]	below the threshold

Molecular target: FRMPD2_1, Q68DX3
Sequence (Q68DX3 770-861): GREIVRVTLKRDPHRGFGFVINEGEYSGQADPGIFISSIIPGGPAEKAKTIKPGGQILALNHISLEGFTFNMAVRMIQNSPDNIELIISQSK
Experiment: holdup assay
Set-up: key: below the threshold = too weak to quantify, mostly under pKd 3.1 to 4
Settings: plain residues with an end cap or a label only (N-terminal biotin on a linker: ado-ado)

Binder	pKd
PEYLGLDVPV [ERBB2, P04626]	3.53

Molecular target: DLG1_2, Q12959
Sequence (Q12959 314-412): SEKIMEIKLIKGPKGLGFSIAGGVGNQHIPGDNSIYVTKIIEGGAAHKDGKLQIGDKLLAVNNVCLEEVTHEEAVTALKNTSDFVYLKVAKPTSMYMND
Experiment: holdup assay
Set-up: key: below the threshold = too weak to quantify, mostly under pKd 3.1 to 4
Settings: plain residues with an end cap or a label only (N-terminal biotin on a linker: ado-ado)

Binder	pKd
PEYLGLDVPV [ERBB2, P04626]	below the threshold

Molecular target: LAP2, Q96RT1
Sequence (Q96RT1 other isoform, or with tags, fused parts or gaps): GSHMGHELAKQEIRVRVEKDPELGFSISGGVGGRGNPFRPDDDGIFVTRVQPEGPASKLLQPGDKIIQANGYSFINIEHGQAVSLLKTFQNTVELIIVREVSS
Experiment: holdup assay
Set-up: key: below the threshold = too weak to quantify, mostly under pKd 3.1 to 4
Settings: plain residues with an end cap or a label only (N-terminal biotin on a linker: ado-ado)

Binder	pKd
PEYLGLDVPV [ERBB2, P04626]	4.26

Molecular target: IL16_4, Q14005
Sequence (Q14005 1229-1329): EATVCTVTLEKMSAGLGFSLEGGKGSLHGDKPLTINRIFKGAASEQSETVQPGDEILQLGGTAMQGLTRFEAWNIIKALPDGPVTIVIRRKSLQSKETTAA
Experiment: holdup assay
Set-up: key: below the threshold = too weak to quantify, mostly under pKd 3.1 to 4
Settings: plain residues with an end cap or a label only (N-terminal biotin on a linker: ado-ado)

Binder	pKd
PEYLGLDVPV [ERBB2, P04626]	3.72

— paper PMC9482650, “Quantitative fragmentomics allow affinity mapping of interactomes” (Nature Communications, 2022)
